Data reported in PMC5415421.

Target: WDR74 isoform II, C-terminal GFP (human)
Assay: co-IP

B1: Full-length mouse NVL2 (1–855), N-terminal One-Strep-Flag tag (enzyme)
chain: MKPRPGVFVDRKLKQRVIQYLSSNRCGKYVDTGILASDLQRLYSVDYGRRKRNAFRIQVEKVFSIISSEKELKNLKELEDGHLAKRARQDEEDEYTESYSDDDSNMEDYPDPQSANPMNSSLLSLYRRGNSESVSTTPKWGQREATTSTPLLTSKTGSVPLKTPARESEGGWFIDKTPGGKKESLPLDLSDDQSNSKKQDSEIQILKDSSLLESDKKRKGRAKGKGNKRKTENLQEVDGEIEALLQKKAKARSTELQISNVKFEDVGGNDATLKEVCKMLIHMRHPEVYQHLGVVPPRGVLLHGPPGCGKTLLAHAIAGELDLPILKVAAPEIVSGVSGESEQKLRELFDQAVSNAPCIVFIDEIDAITPKREVASKDMERRIVAQLLTCMDDLNNVAATARVLVIGATNRPDSLDPALRRAGRFDREVCLGIPDEAARERILQTLCRKLRLPETFNFCHLAHLTPGFVGADLMALCREAAMCAVNRVLMKQQAQQKKKPEIEGLPSEGDQEERLGAEPTSETQDELQRLLGLLRDQDPLSEEQMQGLCIELNDFIVALAEVQPSAKREGFVTVPNVTWADIGALEDIRDELIMAILAPVRNPDQFRTLGLGTPAGILLAGPPGCGKTLLAKAVANESGLNFISVKGPELLNMYVGESERAVRQVFQRAKNSAPCVIFFDEVDALCPRRSDRETGASVRVVNQLLTEMDGLETRQQVFILAATNRPDIIDPAILRPGRLDKTLFVGLPPPADRVAILKTITKNGTKPPLDEDVNLETIANDLRCNCYTGADLTALVREASLCALRQEITAQKNGVGAGELKVSHKHFEDAFKKVKPSISIKDQVMYEALQRSLSQ
relative amount of NVL2 bound to the resin: 9.2%
